According to the RNAGym collection of RNA variant scans (doi:10.1073/pnas.2313332121):
This sample holds only a part of the variants without activity.

B1: TPR 5TU (parent)
chain: GGAUCUUCUCGAUCUAACAAAAAAGACAAAUCUGCCACAAAGCUUGAGAGCAUCUUCGGAUGCAGAGGCGGCAGCCUUCGGUGGCGCGAUAGCGCCAACGUUCUCAACUAUGACACGCAAAACGCGUGCUCCGUUGAAUGGAGUUUAUCAUG

Variants of: B1
Assay: polymerase ribozyme fitness, log enrichment relative to wild type (log ratio); higher = more active; in vitro selection for triplet polymerase activity
In short: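 Mutant libraries of both subunits of a heterodimeric triplet polymerase ribozyme were PCR-built, transcribed, and selected once in triplicate, with frozen incubation at −7 °C and capture of gel-excised extended constructs on streptavidin beads before RT-PCR. Illumina sequencing of input and output libraries was filtered to genotypes with ≥10 input reads and ≥1 read per output. Fitness is the logarithm of genotype enrichment over wild-type enrichment, using inverse-variance-weighted replicate averages. The logarithm is base 2.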

Variant | polymerase ribozyme fitness (log ratio)
GGAUCUUCUCGAUCUAACAAAAAAGACAAAUCUGCCACAAAGCUUGAGAGCAUCUUUGGAUGCAGAGGCGGCAGCCUUCGGUGGAGCGAUAGCGCCAACUUUCUCAACUAUGACACGCAAAACGCGUGCUCCGUUGAGUGGAGUUUAUCAUG | ≤ -4.2
GGAUCUUCUCGAUCUAACAAAAAAGACAAAUCUGCCACAAAGCUUGAGAGCAUCUUUGGAUGCAGAGGCGGCAGCCUUCGGUGGCGCGAUAGCGACCACGUUCUCAACUAUGACACGCAAAAAGCGUGCUCCGUUGAAUGGAGUUUAUCAUG | -0.924
GGAUCUUCUCGAUCUAACAAAAAAGACAAAUCUGCCACAAAGCUUGAGAGCAUCUUUGGAUGCAGAGGCGGCAGCCUUCGGUGGCGUGAUAGCGCCAACGUUCUCAACUAUGCCACGCGAAACGCGUGCUCCGUUGAAUGGAGUUUAUCAUG | -3.09
GGAUCUUCUCGAUCUAACAAAAAAGACAAAUCUGCCACAAAGCUUGAGAGCAUCUUUGGAUGCAGAGGCGGCAGCCUUCGGUGGCGCGAUAGCGUCAACGUUCUCAACUAUGACACGCAAAACGCGUGCUCCGUUGAAUGGAGUUUAUCAUG | -1.55
GGAUCUUCUCGAUCUAACAAAAAAGACAAAUCUGCCACAAAGCUUGAGAGCAUCUUUGGAUGCAGAGGCGGCAGCCUUCGGUGGCGCGAUAGCGGCAACGUUCUCAACUAUGACACGCAAAACGCGUGCUCCGUUGAAUGGAGUUUAUCAUG | -2.96
GGAUCUUCUCGAUCUAACAAAAAAGACAAAUCUGCCACAAAGCUUGAGAGCAUCUUUGCAUGCAGAGGCGGCAGCCUUCGGUGGCGCGAUAGCGGCAACGUUCUCAAUUAUGACACGCAAAACGCGUGCUCCGUUGAAUGGAGUUUAACAUG | ≤ -4.2
GGAUCUUCUCGAUCUAACAAAAAAGACAAAUCUGCCACAAAGCUUGAGAGCAUCUUUGGAUGCAGAGGCGGCAGCCUUCGGUGGGGCGAUAGCGCCAACGUUCUCAACUAUGACACGCAAAACGCGUGCUCCGUUGAAUGGCGUUUAUCGUG | ≤ -4.2
GGAUCUUCUCGAUCUAACAAAAAAGACAAAUCUGCCACAAAGCUUGAGAGCAUCUUUGGAUGCAGAGGCGGCAGCCUUCGGUGGCGCGAUAGCGCGAACGUUCUCAACUAUGACACGCAAAACGCGUGCACCGUUGAAUGGAGUUUAUCAUG | -3.15
GGAUCUUCUCGAUCUAACAAAAAAGACAAAUCUGCCACAAAGCUUGAGAGCAUCUUUGAAUGCAGACGCGGCAGCCUUCGGUGGCGCGAUAGCCCCAACGUUCUCAACUAUGACACGCAAAACGCGUGCUCCGUUGAAUGGAGUUUAUCAUG | ≤ -4.2
GGAUCUUCUCGAUCUAACAAAAAAGACAAAUCUGCCACAAAGCUUGAGAGCAUCUUUGGAUGCAGAGGCGGCAGCCUUCGGUGGCGCGAUAGAGCCAACGUUCUCAACUAUGACACGCAAAACGCCUGCUCCGUUGAAUGGAGUUUAUCAUG | -0.766
GGAUCUUCUCGAUCUAACAAAAAAGACAAAUCUGCCACAAAGCUUGAGAGCAUCUUUGAAUGCAGAGGCGGCAGCCUUCGGUCUAGCGAUAGCGCCAACGGUCUCAACUAUGACACGCAAAACGCAUGCUCCGUUGAAUGGCGUUUAUCAUG | ≤ -4.2
GGAUCUUCUCGAUCUAACAAAAAAGACAAAUCUGCCACAAAGCUUGAGAGCAUCUUUGGAUGCAGAGGCGGCAGCCUUCGGUGGCGCGAUAGCGCCAACGUUCUCAACUAUGACAGGCAAAACGCGUGCUCCGUUGAAUGGAGUUUAUCAUG | 0.474
GGAUCUUCUCGAUCUAACAAAAAAGACAAAUCUGCCACAAAGCUUGAGAGCAUCUUUGGAUGCAGAGACGGUAGCCUUCGGUGGCGCGAUAACGCCAACGUUCUCAACUAUGACACGCAAAACGCGUGCUCCGUUGAAUGGAGUUUAUCAUG | ≤ -4.2
GGAUCUUCUCGAUCUAACAAAAAAGACAAAUCUGCCACAAAGCUUGAGAGCAUCUUUGGAUGCAGAGGCGGCAGCCUUCGGUGGCGCGAUAGCGCCAACGUUCUCAACUAUGAGACGCAAAACGCGUGCUCCGUUGAAUGGAGUUUAUCAUG | -2.73
GGAUCUUCUCGAUCUAACAAAAAAGACAAAUCUGCCACAAAGCUUGAGAGCAUCUUUGGAUGCAGAGGCGGCAGCCUUCGGUGGCGCGAUAGCGGCAACGUUCUCAACUAUGACACGCAAAACGCGCGCUCCGUUGAAGGGGGUUUAUCAUG | -4.04
GGAUCUUCUCGAUCUAACAAAAAAGACAAAUCUGCCACAAAGCUUGAGAGCAUCUUUGGAUGCAGAGGCGGCAGCCUUCGGUGGAGCGAUAGCGCCAACGUUCUCAACUAUGACACGCAAAACGCGUGCUCCCUUAAAUGGAGUUUAUCAUG | -1.86
GGAUCUUCUCGAUCUAACAAAAAAGACAAAUCUGCCACAAAGCUUGAGAGCAUCUUUGGAUGCAGAGGCGGCAGCCUUCGGUGGUGCGAUAGCGCCAACGUUCUCAACUAUGACACGCAAAACGCGUGCUCCGUUGAAUGGAAUUUAUCAUG | -0.317
GGAUCUUCUCGAUCUAACAAAAAAGACAAAUCUGCCACAAAGCUUGAGAGCAUCUUUGGAUGCAGAGGCGGCAGCCUUCGGUGGCGCGAUAGCGUCAACGUUGUCAACUAUGACACGCAAAACGCGUGCUCCGUUGAAUGGAGUUUAUCAUG | -1.87
GGAUCUUCUCGAUCUAACAAAAAAGACAAAUCUGCCACAAAGCUUGAGAGCAUCUUUGGAUGCAGAGGCGGCAGCCUUCGGUGGCGGGAUAGCGCCAACGUUCUCAACUAUGACACGCAAAACGCGUGCUCCGUUGAAUGGAGUUUAUCAUG | ≤ -4.2
